Target: T1, pig α2β1 integrin (pig, UniProt F1SMF4 28-1178; Q9GLP0 21-798)
T1 construct: whole, on cells; Tested with whole blood
Assay: FACS on whole blood, PE-coupled goat anti-mouse IgG

binding result: no binding
B1: anti-α2 integrin mAb purified from hybridoma supernatant (murine) (antibody, mouse IgG2a, kappa)
light: NIVLTQSPASLAVSLGQRATISCRASESVESYGNSFIYWYQQKPGQAPKLLIYLASNLASGVPARFSGSGSRTDFTLTIDPVEADDAATYYCQQNNEDPYTFGGGTKLEIKRADAAPTVSIFPPSSEQLTSGGASVVCFLNNFYPKDINVKWKIDGSERQNGVLNSWTDQDSKDSTYSMSSTLTLTKDEYERHNSYTCEATHKTSTSPIVKSFNRNEC
heavy: QVQLHQPGAELVKPGAPVKLSCKASGYTFTSYWMNWVKQRPGRGLEWIGRIDPSDSETHYNQKFKDKATLTVDKSSSTAYIQLSSLTSEDSAVYYCAKVGRGYFDYWGQGTTLTVSSAKTTAPSVYPLAPVCGDTTGSSVTLGCLVKGYFPEPVTLTWNSGSLSSGVHTFPAVLQSDLYTLSSSVTVTSSTWPSQSITCNVAHPASSTKVDKKIEPRGPTIKPCPPCKCPAPNLLGGPSVFIFPPKIKDVLMISLSPIVTCVVVDVSEDDPDVQISWFVNNVEVHTAQTQTHREDYNSTLRVVSALPIQHQDWMSGKEFKCKVNNKDLPAPIERTISKPKGSVRAPQVYVLPPPEEEMTKKQVTLTCMVTDFMPEDIYVEWTNNGKTELNYKNTEPVLDSDGSYFMYSKLRVEKKNWVERNSYSCSVVHEGLHNHHTTKSFSRTPGK
notes: also called α2 mAb from hybridoma supernatant; anti-α2 integrin monoclonal mouse antibody

From US20160176970A1 (published 2016)
